The results in this text go back to doi:10.1101/2022.05.06.490861.

Test [1] deals with Arp2/3 complex (bovine (purified from bovine brain)) (UniProt P61157).
The target is the same in test [2]. The source holds these as a separate data set.

For “GST-N-WASP-VCA (from UniProt O00401 392-505) (domain or fragment)”, the increase of the detachment rate of SPIN90-Arp2/3-nucleated filaments, 0-1 µM VCA in test [1] is below 16 fold.

With “GST-WASH-VCA (from UniProt Q8VDD8 319-475) (domain or fragment)”, the acceleration of debranching of Arp2/3-mediated branches, 0-3 µM VCA in test [2] was below 83 fold.
